Measurements from IntAct's records for PubMed 16096059.

B1: Tethering factor for nuclear proteasome cut8 (Schizosaccharomyces pombe (strain ATCC 38366 / 972)), P38937 (parent)
chain: METLSYSQIKKRKADFDEDISKRARQLPVGEQLPLSRLLQYSDKQQLFTILLQCVEKHPDLARDIRGILPAPSMDTCVETLRKLLINLNDSFPYGGDKRGDYAFNRIREKYMAVLHALNDMVPCYLPPYSTCFEKNITFLDAATNVVHELPEFHNPNHNVYKSQAYYELTGAWLVVLRQLEDRPVVPLLPLEELEEHNKTSQNRMEEALNYLKQLQKNEPLVHERSHTFQQTNPQNNFHRHTNSMNIGNDNGMGWHSMHQYI
partner: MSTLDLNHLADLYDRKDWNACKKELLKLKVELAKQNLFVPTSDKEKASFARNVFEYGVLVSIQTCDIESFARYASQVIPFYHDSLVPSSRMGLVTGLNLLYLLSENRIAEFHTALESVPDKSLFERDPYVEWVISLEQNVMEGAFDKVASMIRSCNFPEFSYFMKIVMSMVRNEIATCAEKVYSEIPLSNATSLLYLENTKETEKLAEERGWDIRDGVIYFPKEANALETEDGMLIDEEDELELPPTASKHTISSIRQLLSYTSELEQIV
B2: Tethering factor for nuclear proteasome cut8 (Schizosaccharomyces pombe (strain ATCC 38366 / 972)), P38937 (parent)
chain: B1 chain
partner: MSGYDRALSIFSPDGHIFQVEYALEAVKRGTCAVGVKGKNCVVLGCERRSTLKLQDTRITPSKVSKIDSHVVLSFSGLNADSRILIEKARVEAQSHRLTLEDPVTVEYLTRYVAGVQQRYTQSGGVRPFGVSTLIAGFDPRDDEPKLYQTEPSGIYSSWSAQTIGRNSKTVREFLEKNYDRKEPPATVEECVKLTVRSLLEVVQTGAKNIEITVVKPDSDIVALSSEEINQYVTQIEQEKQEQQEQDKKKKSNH

Variants of: B1
Conditions: with rpn12_schpo rpn12, P50524

Question: K10R;K11R;K13R;K22R;K44R;K57R was tested. Which “effect of a mutation on the interaction” value did it give?
Answer: The value was “decreasing interaction”.

Variants of: B2
Conditions: with psa4_yeast PRE6, P40303

Question: Which “effect of a mutation on the interaction” value does the source give for K10R;K11R;K13R;K22R;K44R;K57R here?
Answer: The value was “decreasing interaction”.
